# Measured values taken from patent publication US20230048360A1 (EUREKA THERAPEUTICS, published 2023).
# Legend:
# [1] = target: T1, full-length human GPC3 over-expressed on SK-Hep1-GPC3 cells (human, UniProt P51654 25-560); assay: FACS, GPC3A L2K on SK-Hep1-GPC3 cells, APC anti-His; same L2K on GPC3-negative SK-Hep1 median 61.6
# T1 construct: also called GPC3 over-expressing SK-Hep1 cells
# Method: Cells were then washed once with PBS. APC-conjugated anti-His tag mouse antibody (R&D Systems) was added to the washed cells in a volume of 100 μl, at 20-fold dilution of 5% FBS in PBS and 0.05% NAN₃ and incubated for 1 hour at 4° C. in the dark. The cells were then washed twice with PBS. The cells were fixed in 3-fold dilution of fixation buffer (BioLegend) in PBS in a volume of 150 μl.
# [2] = target: T2, cell surface-bound human GPC3 on GPC3+ HepG2 cells (human, UniProt P51654 25-560, GPI anchor and heparin sulfate side chains, as the filing describes native GPC3); assay: FACS on GPC3+ HepG2 cells, labelled on the sheet GPC3A L2K against control L2K; control L2K median 93.8; axis PE-A
# T2 construct: Endogenous GPC3 of the HepG2 line; also called Glypican 3; native GPC3
# Method: (§1) APC-conjugated anti-His tag mouse antibody (R&D Systems) was added in a volume of 100 μl, a 20-fold dilution of 5% FBS in PBS and 0.05% NaN₃ and incubated for 1 hour at 4° C. in the dark, then washed twice with PBS. The cells were fixed in 3-fold dilution of fixation buffer (BioLegend) in PBS in a volume of 150 μl.
# [3] = target: T2, cell surface-bound human GPC3 on GPC3+ …; assay: FACS, mIgG1 on GPC3-positive HepG2 cells, PE anti-mouse IgG (H and L); control mIgG1 median 93.8
# [4] = target: T2, cell surface-bound human GPC3 on GPC3+ …; assay: apparent Kd from FACS on GPC3+ HepG2 cells
# Method: (§2) APC-conjugated anti-His tag mouse antibody (R&D Systems) was added in a volume of 100 μl, a 20-fold dilution of 5% FBS in PBS and 0.05% NaN₃ and incubated for 1 hour at 4° C. in the dark, then washed twice with PBS. The cells were fixed in 3-fold dilution of fixation buffer (BioLegend) in PBS in a volume of 150 μl. As a separate control, HepG2 cells were also incubated with APC-conjugated anti-His tag mouse antibody (R&D Systems) in the absence of any L2K bispecific antibody.
# [5] = target: T2, cell surface-bound human GPC3 on GPC3+ …; assay: FACS titration on GPC3+ HepG2 cells, anti-His detection
# Method: as §2
# [6] = target: T3, biotinylated recombinant human GPC3(560) (human, biotin on the C-terminal BirA substrate peptide ; Biotin on a lysine of the C-terminal BirA substrate peptide, which is not in the letters.); assay: SPR, Biacore X100, single-cycle kinetics, bt-GPC3(560) captured on chip, 1:1 model
# T3 construct: Made in E. coli BL21 (pET-27b) from inclusion bodies and biotinylated with BirA; also called bt-GPC3(560); soluble bt-GPC3(560) protein
# Method: All of the proteins used in the assay were diluted in HBS-E buffer prior to use. Briefly, 5-10 μg/ml of bt-GPC3₍₅₆₀₎ was immobilized onto a sensor chip pre-functionalized with CAPture Reagent and injected onto the flow cell. Affinity of the L2K bispecific antibodies for immobilized antigen was measured by injection of the various bispecific antibodies at 0.3-5 mg/ml with a 90 second association phase followed by a 90 second dissociation phase at a flow rate of 30 μl/min. At the end of each run, the surface of the sensor chip was regenerated using the reagents provided in the Biotin CAPture kit. Binding constants were determined by nonlinear regression analysis using a 1:1 binding model (BIACORE™ X-100 evaluation software, FIGS. 15A and 15B). The association-on-rate-kₒₙ, affinity constant-kₐ, dissociation constant-kd, and equilibrium dissociation constant-Kd were then calculated for each L2K clone (Table 14).
# [7] = target: T4, biotinylated GPC3-51mer fragment (human, biotinylated (site not stated)); assay: phage ELISA on biotinylated GPC3-51mer
# T4 construct: Synthesized by Elim Biopharmaceuticals; also called bt-GPC3-51mer; hGPC3-51mer fragment
# T4 peptide: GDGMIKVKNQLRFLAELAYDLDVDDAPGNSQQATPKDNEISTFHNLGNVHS
# [8] = target: T2, cell surface-bound human GPC3 on GPC3+ …; assay: FACS on GPC3+ HepG2 cells, labelled on the sheet GPC3A L2K against control L2K; control L2K median 93.8; axis PE-A; remark: listed apart in the source
# Method: as §1
binder,measurement,setting,value
"#39 GPC3A L2K (bispecific antibody, also called GPC3A-39 L2K) tandem di-scFv: SYVLTQPPSVSVAPGKTARITCGGNNIGSKSVHWYQQKPGQAPVLVIYYDSDRPSGIPERFSGSNSGNTATLTISRVEAGDEADYYCQVWDSSSDHWVFGGGTKLTVLGSRGGGGSGGGGSGGGGSLEMAQVQLVQSGGGLVHPGGSLRLSCAGSGFTFSSYAMHWVRQAPGKGLEWVSAIGTGGGTYYADSVKGRFTISRDNAKNSLYLQMNSLRAEDTAVYYCARYGRKSIDAWGQGTLVTVSSTSGGGGSDVQLVQSGAEVKKPGASVKVSCKASGYTFTRYTMHWVRQAPGQGLEWIGYINPSRGYTNYADSVKGRFTITTDKSTSTAYMELSSLRSEDTATYYCARYYDDHYCLDYWGQGTTVTVSSGEGTSTGSGGSGGSGGADDIVLTQSPATLSLSPGERATLSCRASQSVSYMNWYQQKPGKAPKRWIYDTSKVASGVPARFSGSGSGTDYSLTINSLEAEDAATYYCQQWSSNPLTFGGGTKVEIKHHHHHH",Median : APC-A,[1],445
same,Median : PE-A,[2],6380
"anti-GPC3 mIgG1 clone A-39 (antibody, V domains shown, also called anti-GPC3 mIgG1 A-39) VH: QVQLVQSGGGLVHPGGSLRLSCAGSGFTFSSYAMHWVRQAPGKGLEWVSAIGTGGGTYYADSVKGRFTISRDNAKNSLYLQMNSLRAEDTAVYYCARYGRKSIDAWGQGTLVTVSS VL: SYVLTQPPSVSVAPGKTARITCGGNNIGSKSVHWYQQKPGQAPVLVIYYDSDRPSGIPERFSGSNSGNTATLTISRVEAGDEADYYCQVWDSSSDHWVFGGGTKLTVLG",Median : PE-A,[3],6380
GPC3A-46 L2K (bispecific antibody) QAVLTQPPSVSGTPGQRVTISCSGSSSNFGSNTVHWYQQVPGTAPKLLIFSNTQRPSEIPDRFSGSKSGTSASLAISGLQSEDEADYYCAAWDDSLTGVVFGGGTKLTVLGSRGGGGSGGGGSGGGGSLEMAQVQLVQSGAEVKKPGASVTVSCKASGYRFSNYGVSWVRQAPGQGLEWMGWISGSNGNTNYAQKFLGRVTMTTDTSTTTAYMELSSLRSDDTAVYYCARGNRRYYSPIIDPWGQGTLVTVSSTSGGGGSDVQLVQSGAEVKKPGASVKVSCKASGYTFTRYTMHWVRQAPGQGLEWIGYINPSRGYTNYADSVKGRFTITTDKSTSTAYMELSSLRSEDTATYYCARYYDDHYCLDYWGQGTTVTVSSGEGTSTGSGGSGGSGGADDIVLTQSPATLSLSPGERATLSCRASQSVSYMNWYQQKPGKAPKRWIYDTSKVASGVPARFSGSGSGTDYSLTINSLEAEDAATYYCQQWSSNPLTFGGGTKVEIKHHHHHH,Median : APC-A,[1],657
same,Kd,[4],1 nM
same,EC50,[5],0.05 µg/mL
same,Median : PE-A,[2],9860
same,Kd,[6],3.2 nM
same,koff,[6],0.00129 s⁻¹
same,kon,[6],399000 M⁻¹ s⁻¹
"GPC3A-42 phage clone (scFv, also called GPC3A-042) scFv: SYVLTQPPSASGTPGQRVTISCFGSSSDIGSNSVFWYQQLPGAAPKLLIYSTQYRPSGVPDRFSGSKSGTSASLAISGLQSEDEAEYHCATWDDSLNGYVFGSGTKVTVLGSRGGGGSGGGGSGGGGSLEMAQVQLQQSGAEVKKPGASVKVSCKASGYSFTGYYVYWMRQAPGKGLEWMGWMNPRSGGTNYAQKFQGRVTMTRDTSISTAYMELSRLTSDDTAVYYCARSSYYWADSWGQGTLVTVSS",binding result,[7],no binding
"anti-GPC3 mIgG1 clone A-56 (antibody, V domains shown, Fused to mouse IgG1 heavy chain and light chain constant regions) VH: QVQLQQSGAEVKKFGASVKVSCKASGYSFNDYYIHWVRQAPGQGLEWMGWINPNNGDTKYEKKWQGRVTMTRDTSITTAYMELSSLRSDDTAVYYCARFSTHNWWWPTYDYWGQGTLVTVSS VL: not shown",Median : PE-A,[3],5630
"anti-GPC3 mIgG1 clone A-46 (antibody, V domains shown, Fused to mouse IgG1 heavy chain and light chain constant regions; also called GPC3A mIgG1 clone A-46) VH: QVQLVQSGAEVKKPGASVTVSCKASGYRFSNYGVSWVRQAPGQGLEWMGWISGSNGNTNYAQKFLGRVTMTTDTSTTTAYMELSSLRSDDTAVYYCARGNRRYYSPIIDPWGQGTLVTVSS VL: QAVLTQPPSVSGTPGQRVTISCSGSSSNFGSNTVHWYQQVPGTAPKLLIFSNTQRPSEIPDRFSGSKSGTSASLAISGLQSEDEADYYCAAWDDSLTGVVFGGGTKLTVLG",Median : PE-A,[3],9860
"anti-GPC3 mIgG1 clone A-58 (antibody, V domains shown, Fused to mouse IgG1 heavy chain and light chain constant regions; also called GPC3A mIgG1 clone A-58) VH: QVQLVQSGADVRKPGASVKVSCKASGYTFASHGISWVRQAPGQGLEWLGWISPYTGNTNYAQKFQGRVTMATDTSTSTAYMELRSLRSDDTAIYYCARGKRTLASCFDYWGQGTLVTVSS VL: QSVLTQPPSVSVAPGKTARITCGGNNIGSKSVHWYQQKPGQAPVLVVYDDSDRPSGIPERFSGSNSGNTATLTISRVEAGDEADYYCQVWDSSSDHVFGTGTKVTVLG",Median : PE-A,[3],8030
"GPC3A-58 L2K (bispecific antibody, also called GPC3A L2K bispecific antibody #58) QSVLTQPPSVSVAPGKTARITCGGNNIGSKSVHWYQQKPGQAPVLVVYDDSDRPSGIPERFSGSNSGNTATLTISRVEAGDEADYYCQVWDSSSDHVFGTGTKVTVLGSRGGGGSGGGGSGGGGSLEMAQVQLVQSGADVRKPGASVKVSCKASGYTFASHGISWVRQAPGQGLEWLGWISPYTGNTNYAQKFQGRVTMATDTSTSTAYMELRSLRSDDTAIYYCARGKRTLASCFDYWGQGTLVTVSSTSGGGGSDVQLVQSGAEVKKPGASVKVSCKASGYTFTRYTMHWVRQAPGQGLEWIGYINPSRGYTNYADSVKGRFTITTDKSTSTAYMELSSLRSEDTATYYCARYYDDHYCLDYWGQGTTVTVSSGEGTSTGSGGSGGSGGADDIVLTQSPATLSLSPGERATLSCRASQSVSYMNWYQQKPGKAPKRWIYDTSKVASGVPARFSGSGSGTDYSLTINSLEAEDAATYYCQQWSSNPLTFGGGTKVEIKHHHHHH",Kd,[4],2.4 nM
same,EC50,[5],0.12 µg/mL
same,Median : PE-A,[8],8030
same,Kd,[6],5.1 nM
same,koff,[6],0.00188 s⁻¹
same,kon,[6],368000 M⁻¹ s⁻¹
"#51 GPC3A L2K (bispecific antibody, also called GPC3A-51 L2K) tandem di-scFv: QAVLTQPSSASGAPGQRVTISCTGGSSNIGAGYDVHWYQQLPGTAPKLLIYGNSNRPSGVPDRFSGSKSGTSASLAITGLQAEDEADYYCQSYDSSLSGYVFGTGTKVTVLGSRGGGGSGGGGSGGGGSLEMAQVQLVQSGAEVKKPGSSVKVSCKASGGAFSSYAISWVRQAPGQGLEWMGGIIPIFGTANYAQKFQGRVTITADESTSTAYMELSSLRSEDTAVYYCARMLYLSGRYYWDSWGQGTLVTVSSTSGGGGSDVQLVQSGAEVKKPGASVKVSCKASGYTFTRYTMHWVRQAPGQGLEWIGYINPSRGYTNYADSVKGRFTITTDKSTSTAYMELSSLRSEDTATYYCARYYDDHYCLDYWGQGTTVTVSSGEGTSTGSGGSGGSGGADDIVLTQSPATLSLSPGERATLSCRASQSVSYMNWYQQKPGKAPKRWIYDTSKVASGVPARFSGSGSGTDYSLTINSLEAEDAATYYCQQWSSNPLTFGGGTKVEIKHHHHHH",Median : APC-A,[1],677
same,Median : PE-A,[2],12200
"GPC3A-37 phage clone (scFv, also called GPC3A-037) scFv: QSVLTQPPSVSAAPGQRVTISCSGTRSNIGSDYVSWYQHLPGTAPKLLVYGDNLRPSGIPDRFSASKSGTSATLGITGLQTGDEADYYCGTWDYTLNGVVFGGGTKLTVLGSRGGGGSGGGGSGGGGSLEMAQVQLVESGGGLVQPGGSLRLSCAASGFTFSSYAMSWVRQAPGKGLEWVSVIYSGGSSTYYADSVKGRFTISRDNSKNTLYLQMNSLRAEDTAVYYCARTSYLNHGDYWGQGTLVTVSS",binding result,[7],no binding
"#64 GPC3A L2K (bispecific antibody, also called GPC3A-64 L2K; GPC3-64 L2K) tandem di-scFv: LPVLTQPPSLSVAPGKTARLTCGGNNIGSKSVHWYHQKPGQAPVLVVYDDTDRPSGIPERFSGSNSGNTAALTISRVEVGDEADYYCQVWDRSSAHWVFGGGTKLTVLGSRGGGGSGGGGSGGGGSLEMAQMQLVQSGAEVKKPGASVKVSCKASGYTFTIYGISWVRQAPGQGLEWMGWISPYNDNTIYAQKVQGRVTMTTDTSTSTAYMELRSLRSDDTAVYYCARMGVGWGYAQDSWGQGTLVTVSSTSGGGGSDVQLVQSGAEVKKPGASVKVSCKASGYTFTRYTMHWVRQAPGQGLEWIGYINPSRGYTNYADSVKGRFTITTDKSTSTAYMELSSLRSEDTATYYCARYYDDHYCLDYWGQGTTVTVSSGEGTSTGSGGSGGSGGADDIVLTQSPATLSLSPGERATLSCRASQSVSYMNWYQQKPGKAPKRWIYDTSKVASGVPARFSGSGSGTDYSLTINSLEAEDAATYYCQQWSSNPLTFGGGTKVEIKHHHHHH",Median : PE-A,[8],6600
"GPC3A-43 phage clone (scFv, also called GPC3A-043) scFv: QSVLTQPPSASGTPGQRVTISCSGSSSNIGTNYVYWYQQLPGTAPKLIIYRNNQRPSGVPDRFSGSESGTSASLAISGLRSEDEADYYCAVWDDSLSGVVFGGGTKLTVLGSRGGGGSGGGGSGGGGSLEMAEVQLVQSGAEVKKPGATVKVSCKVSGYTFTDYYMHWVQQAPGKGLEWMGLVDPEDGETIYAEKFQGRVTITADTSTDTAYMELSSLRSEDTAVYYCARELRDVAYYPWGVEDFWGQGTLVTVSS",binding result,[7],no binding
